We go through 1 molecule from US20180171001A1 (ROCKEFELLER UNIVERSITY, published 2018).

Targets include SC4226618 (Human immunodeficiency virus 1); Tro11 (Human immunodeficiency virus 1); 6535_3 (Human immunodeficiency virus 1).
Common to all, as to assay: cell-based or functional assay

B1: chimeric IgG: 8ANC195 HC paired with mature LC with CDRL2 reverted to germline (antibody, V domains shown)
VH: QIHLVQSGTEVKKPGSSVTVSCKAYGVNTFGLYAVNWVRQAPGQSLEYIGQIWRWKSSASHHFRGRVLISAVDLTGSSPPISSLEIKNLTSDDTAVYFCTTTSTYDKWSGLHHDGVMAFSSWGQGTLISVSA
VL: DIQMTQSPSTLSASIGDTVRISCRASQSITGNWVAWYQQRPGKAPRLLIYKASALLGGVPSRFSGSAAGTDFTLTIGNLQAEDFGTFYCQQYDTYPGTFGQGTKVEVK
For the molecule B1, the “IC50 (fold change over 8ANC195 IgG), pseudovirus neutralization [panel B]” value is 99 fold with SC4226618, 62 fold with Tro11 and 31 fold with 6535_3.
